Measured values reported in publication PMC9745132, “Visualization of real-time receptor endocytosis in dopamine neurons enabled by NTSR1-Venus knock-in mice” (Frontiers in Cellular Neuroscience, 2022).
Where a name gives a salt, the structure may show the parent alone.

What was measured:
[1] = test system: hippocampal neurons from Ntsr1^WT/WT mice; assay: Intracellular calcium release (Fluo-4) in hippocampal neurons from Ntsr1^WT/WT mice; format: cell-based, mouse; details: 1 μM, maximal calcium response control
[2] = test system: hippocampal neurons from Ntsr1^Venus/Venus mice; assay: Intracellular calcium release (Fluo-4) in hippocampal neurons from Ntsr1^Venus/Venus mice; format: cell-based, mouse; details: 1 μM, maximal calcium response control
Protocol: To isolate hippocampal neurons, P0 pups were removed from the cage of NTSR1-Venus homozygous knock-in breeding pairs. Pups were decapitated, brains were removed dorsal side up into fresh ice-cold Hank’s balanced salt solution (HBSS; Gibco, Grand Island, NY, USA), meninges were removed, and hippocampi were dissected into Hibernate A (Gibco, Grand Island, NY, USA) on ice. Tissue dissociation was carried out with the Papain Dissociation System according to the manufacturer’s protocol (Worthington Biochemical Corporation, Lakewood, NJ, USA). Neurons were plated on Poly-D-Lysine (Sigma) coated surfaces at 100,000 cells per 12 mm coverslip (NeuVitro, Camas, WA, USA) in a 24-well plate for immunostaining or 50,000 cells per well of an 8 well chamber slide (Ibidi, Grafelfing, Germany) for calcium measurements. Plating media [Neurobasal A (Gibco, Grand Island, NY, USA), 1% FBS (Fisher Scientific), 2% B-27 (Gibco, Grand Island, NY, USA), 0.5 mM GlutaMAX (Gibco, Grand Island, NY, USA), and 1x Penicillin/Streptomycin (Invitrogen, Waltham, MA, USA)] was exchanged 1 h after plating to maintenance media (Neurobasal A, 2% B-27, 0.5 mM GlutaMAX, and 1x Penicillin/Streptomycin). Half of the volume of media was exchanged for fresh media every 3–4 days. On day in vitro (DIV) 3 Cytosine arabinoside hydrochloride (Sigma) was added to media with a final concentration of 0.1 μM to decrease glial cell proliferation.
Hippocampal neurons were grown until DIV 7. Fluo-4 NW Calcium Assay kit (Thermo Fisher) was used according to the manufacturer’s protocol. Briefly, drugs were prepared at 4 μM stock solutions in the assay buffer provided without probenecid. […] Fluorescence was imaged with a 10x objective on an (Olympus, Shinjuku City, Tokyo, Japan) IX73 microscope (Fluo-4 em. 506 nm).
Live imaging settings of Fluo-4 were as follows, 79 ms exposure, 2 s intervals for 90 cycles (180 s). […] First regions of interest (ROI) were automatically determined using the analyze particles plug in. […] Relative fluorescence is defined as F/F0 where F corresponds to the cell fluorescence and F0 to the basal fluorescence.

[3] = target: NTSR1-Venus (knock-in receptor of Ntsr1 Venus/Venus mice) (mouse) (UniProt O88319)
NTSR1-RlucII (mouse) [4] = target: NTSR1-RlucII (mouse) (UniProt O88319)
[5] = target: NTSR1-Venus (transfected construct) (mouse) (UniProt O88319)
NTSR1-RlucII (mouse) [6] = target: NTSR1-RlucII (mouse) (UniProt O88319); remark: listed apart in the source
[7] = target: mouse NTSR1 (untagged) (mouse) (UniProt O88319)
NTSR1-Venus = target: T1, NTSR1-Venus (Mus musculus, UniProt O88319); assay: Multiphoton imaging of NTSR1-Venus internalization in acute SN/VTA brain slices; format: cell-based; details: 1 μM during slice recovery and imaging, 60 min
T1 construct: monitoring endogenous NTSR1-Venus receptor endocytosis could differentiate NTSR1 agonists; endogenous in cells; host or cells: primary hippocampal neurons from homozygous NTSR1-Venus knock-in mice (C57BL/6N background)
Protocol: Male and female Ntsr1^Venus/Venus mice aged 5 weeks were anesthetized, and 250 μm-thick coronal slices containing substantia nigra pars compacta and ventral tegmental area were prepared. Cutting solution contained (in mM): 87 NaCl, 25 NaHCO3, 25 glucose, 75 sucrose, 2.5 KCl, 1.25 NaH2PO4, 0.5 CaCl2, and 7 MgCl2; bubbled with 5% CO2/95%O2; 4°C. Following cutting, slices were incubated in the same solution for 30 min at 33°C. For control experiments, slices were subsequently incubated in the same solution at room temperature until imaging. For antagonist experiments, slices were subsequently incubated in cutting solution with 1 μM SR48962 until imaging. SR48962 was prepared as a 1 mM stock in water.
Imaging solution referred to as aCSF contained (in mM): 125 NaCl, 2.5 KCl, 2 CaCl2, 1 MgCl2, 25 NaHCO3, 1.25 NaH2PO4, 25 glucose; bubbled with 5% CO2/95% O2; 31–34°C, ∼310 mOsm. For antagonist-only experiments, 1 μM SR48962 was added to the imaging solution. For antagonist plus agonist experiments, a baseline image was taken with no NTSR1 agonist or antagonist in the imaging solution, and subsequently, 10 μM PD149163 [prepared from a stock solution in water] was added to the imaging solution. As a precautionary measure, all components that were exposed to antagonist were rinsed first with 70% ethanol and then water. All components that were exposed to agonist were replaced between experiments.
For two-photon laser scanning microscopy (2PLSM), a 2-photon source (Coherent Ultra II, Santa Clara, CA, USA) was tuned to 920 nm for imaging. […] Both epi and transfluorescence were detected with R9110 photomultiplier tubes (Hamamatsu, Shizuoka, Japan). Laser power measured at the focal plane under the objective was between 8 and 34 mW. […]
To test whether NTSR1 receptors are indeed being bound by endogenous ligand in acute slice, we compared NTSR1 distribution in slices treated with the NTSR1 specific antagonist, SR48692 ([Gully et al., 1993]). […] NTSR1-Venus puncta were then quantified in the acquired image projections by counting vesicle-sized particles (Figure 5E). […]

Sequence of NTSR1-Venus (knock-in receptor of Ntsr1 Venus/Venus mice) (mouse) (O88319 whole entry): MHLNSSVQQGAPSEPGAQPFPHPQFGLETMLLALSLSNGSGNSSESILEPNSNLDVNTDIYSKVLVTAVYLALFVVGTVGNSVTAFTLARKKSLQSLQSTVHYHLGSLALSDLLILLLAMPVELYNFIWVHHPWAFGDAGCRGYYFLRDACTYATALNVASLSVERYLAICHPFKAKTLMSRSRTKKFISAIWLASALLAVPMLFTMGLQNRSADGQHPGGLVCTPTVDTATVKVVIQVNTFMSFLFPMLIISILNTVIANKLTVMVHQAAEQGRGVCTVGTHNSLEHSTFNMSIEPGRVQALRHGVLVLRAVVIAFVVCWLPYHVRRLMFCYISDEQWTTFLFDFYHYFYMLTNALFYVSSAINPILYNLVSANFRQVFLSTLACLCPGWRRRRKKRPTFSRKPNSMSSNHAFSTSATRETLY
Sequence of NTSR1-RlucII (mouse) (O88319 whole entry): as above
T1 sequence (O88319 whole entry): as above
Sequence of mouse NTSR1 (untagged) (mouse) (O88319 whole entry): as above
Sequence of NTSR1-Venus (transfected construct) (mouse) (O88319 whole entry): as above

C[C@H](CCC(=O)O)C[C@H](C)C[C@H](C)C(=O)/C=C(\O)[C@H](C)C[C@H](C)C/C=C/[C@@H](C)[C@@H](O)[C@@H](C)[C@@H](O)C[C@@H]1CC[C@@](C)([C@H]2CC[C@@](C)([C@@H](C)O)O2)O1 [Ionomycin, Ionomycin calcium salt from Streptomyces conglobatus]
calcium increase [1]: 3 fold | calcium increase [2]: 3 fold

Neurotensin (from UniProt P30990 151-163) (peptide)
NTSR1-Venus endocytosis in primary hippocampal neurons (ratio of Venus and EEA1 positive to total EEA1 positive endosomes), dose-response after 5 min of agonist; EC50 [3]: 4.03 nM | NTSR1-Venus redistribution to EEA1 endosomes in primary hippocampal neurons, 1 uM neurotensin, time course 0-60 min; % EEA1 vesicles with Venus (value at 5 min) [3]: 98.5% | NTSR1-RlucII internalization in HEK293 cells (decrease in ebBRET between NTSR1-RlucII and rGFP-CAAX), concentration-response; potency as told in the text (NTSR1-RlucII (mouse) [4]): 5.89 nM | Gq activation in HEK293 cells (ebBRET between p63RhoGEF-RlucII and rGFP-CAAX, EMTA), concentration-response; potency LogEC50 [5]: -8.78 LogEC50 (M) | NTSR1-RlucII internalization in HEK293 cells (decrease in ebBRET between NTSR1-RlucII and rGFP-CAAX), concentration-response; potency LogEC50 (NTSR1-RlucII (mouse) [6]): -8.07 LogEC50 (M) | Gq activation in HEK293 cells (ebBRET between p63RhoGEF-RlucII and rGFP-CAAX, EMTA), concentration-response; potency LogEC50 [7]: -8.97 LogEC50 (M)

COc1cccc(OC)c1-c1cc(C(=O)NC2(C(=O)O)C3CC4CC(C3)CC2C4)nn1-c1ccnc2cc(Cl)ccc12 (stereo not drawn) [SR48692]
NTSR1-Venus puncta across imaging time (NTSR1-Venus): trend of decreasing puncta across imaging time
